Source: PMC7132340 (EMBO Reports, 2020)

B1: Gal‐3 CRD mutant E185A (domain or fragment, UniProt P17931 108-250, looked up)
chain: GAPAGPLIVPYNLPLPGGVVPRMLITILGTVKPNANRIALDFQRGNDVAFHFNPRFNENNRRVIVCNTKLDNNWGREARQSVFPFESGKPFKIQVLVEPDHFKVAVNDAHLLQYNHRVKKLNEISKLGISGDIDLTSASYTMI
notes: The limits are those printed for the wild-type CRD
B2: Gal‐3 CRD mutant N222A (domain or fragment, UniProt P17931 108-250, looked up)
chain: GAPAGPLIVPYNLPLPGGVVPRMLITILGTVKPNANRIALDFQRGNDVAFHFNPRFNENNRRVIVCNTKLDNNWGREERQSVFPFESGKPFKIQVLVEPDHFKVAVNDAHLLQYAHRVKKLNEISKLGISGDIDLTSASYTMI
notes: as for B1
B3: Gal‐3 CRD mutant N160A (domain or fragment, UniProt P17931 108-250, looked up)
chain: GAPAGPLIVPYNLPLPGGVVPRMLITILGTVKPNANRIALDFQRGNDVAFHFAPRFNENNRRVIVCNTKLDNNWGREERQSVFPFESGKPFKIQVLVEPDHFKVAVNDAHLLQYNHRVKKLNEISKLGISGDIDLTSASYTMI
notes: as for B1
B4: Gal‐3 CRD mutant Q220E (domain or fragment, UniProt P17931 108-250, looked up)
chain: GAPAGPLIVPYNLPLPGGVVPRMLITILGTVKPNANRIALDFQRGNDVAFHFNPRFNENNRRVIVCNTKLDNNWGREERQSVFPFESGKPFKIQVLVEPDHFKVAVNDAHLLEYNHRVKKLNEISKLGISGDIDLTSASYTMI
notes: as for B1
B5: Gal‐3 CRD mutant Q220K (domain or fragment, UniProt P17931 108-250, looked up)
chain: GAPAGPLIVPYNLPLPGGVVPRMLITILGTVKPNANRIALDFQRGNDVAFHFNPRFNENNRRVIVCNTKLDNNWGREERQSVFPFESGKPFKIQVLVEPDHFKVAVNDAHLLKYNHRVKKLNEISKLGISGDIDLTSASYTMI
notes: as for B1
B6: Gal‐3 CRD mutant H217A (domain or fragment, UniProt P17931 108-250, looked up)
chain: GAPAGPLIVPYNLPLPGGVVPRMLITILGTVKPNANRIALDFQRGNDVAFHFNPRFNENNRRVIVCNTKLDNNWGREERQSVFPFESGKPFKIQVLVEPDHFKVAVNDAALLQYNHRVKKLNEISKLGISGDIDLTSASYTMI
notes: as for B1

Target: T1, WT human CXCL12α (human, UniProt P48061-2 22-89, 15N-labelled in one NMR orientation; FITC in flow cytometry (Fig 6H))
T1 construct: CXCL12 alpha, human, codon-optimised cDNA, released from the thioredoxin-His fusion by enterokinase; also called CXCL12 FITC; source: E. coli BL21(DE3), from inclusion bodies, purified (HisTrap, Heparin HP, enterokinase cleavage, Mono S); not shown: thioredoxin, N-terminal, cleaved; His tag, N-terminal, cleaved
Experiment: far-Western, overlay or dot blot; solid-phase immunoassay: 100 ng of Gal-3 or Gal-3 CRD variants on nitrocellulose, 120 nM CXCL12 overnight, SA-HRP, densitometry (Appendix Fig S7)
Details: both partners purified

Does B1 bind?
Result: binds

Does B2 bind?
Result: binds

Does B3 bind?
Result: binds

Target: T1, WT human CXCL12α
Experiment: NMR titration; 1H-15N HSQC, 15N-labelled protein with unlabelled partner (10 μM 15N-CXCL12 with 330 μM Gal-3 CRD; 30 μM 15N-Gal-3 CRD with 500 μM CXCL12; 30 μM 15N-CXCL12 with 500 μM Gal-3 CRD mutants), 20 mM sodium acetate pH 4.5, 4.5 mM lactose, 37°C
Details: both partners purified

For B4, which “CXCL12 sequence-averaged Δδ” value is on record?
The value was 0.0073 ppm.

Which “CXCL12 sequence-averaged Δδ” value does the source give for B5 here?
Its value is 0.0036 ppm.

How did the “CXCL12 sequence-averaged Δδ” value turn out when B6 was run?
The value was 0.0048 ppm.
